Measured values as given in patent US20140378374A1, “METHODS OF TREATMENT” (GlaxoSmithKline Intellectual Property (No.2) Limited, priority 2013, published 2014).

How the values were obtained:
[1] = Phase 1 single-dose (30 mg subcutaneous) pharmacokinetics and safety study in T2DM with normal or varying degrees of renal impairment; format: in vivo, human; conditions: for AUC Ratio / Cmax Ratio: single 30 mg dose
Method: A Phase 1, open-label, nonrandomized study evaluated the pharmacokinetics of a single 30 mg subcutaneous dose of albiglutide in subjects with T2DM and normal or varying degrees of renal impairment. Eligible subjects were men and women from 30 to 75 years of age (inclusive) with T2DM and HbA1c between ≧6.0% and ≦10.5%. […] Participants on hemodialysis were on stable treatment for at least 3 months before screening and had serum albumin ≧[…] and hemoglobin ≧8 g/dL.
Venous blood samples for determination of albiglutide were drawn on Day 1 prior to dosing and 6 hours after dosing and on Days 2, 3, 5, 10, 14, 21, 29, and 42 after administration of albiglutide (30 mg subcutaneous). In subjects undergoing hemodialysis, Day 1 was planned to be the day before a scheduled hemodialysis day (Day 2). Following blood sampling on Day 1 (before dosing and 6 hours after dosing) blood samples were taken before and after each dialysis procedure over the next 7 weeks. For all subjects, each blood sample was about 3 mL and drawn into an EDTA collection tube, immediately placed on crushed ice and water, and centrifuged for 10 minutes at 1,500 g at 4° C. Approximately 1 mL of plasma was transferred to a sterile 1.8-mL tube (Nunc® CryoTube®, Sigma-Aldrich) and stored at −70° C. until assaying.
Albiglutide PK samples collected in participants undergoing hemodialysis also were analyzed to assess predialysis and postdialysis changes in albumin concentrations.
Plasma samples were analyzed for albiglutide by using a validated enzyme-linked immunosorbent assay (ELISA) and were diluted 100-fold with sample buffer before analysis. Albiglutide was captured using a rabbit anti-human GLP-1 (7-36) amide and detected using a rabbit anti-HSA conjugated to biotin. ELISA experiments were performed using the Furoninc® 96 well plate (Nunc, cat. #437796) with the following steps. 1) […], antibody coating solution of 5.0 μg/mL anti-GLP-1 (7-36) Amide (human) IgG (Peninsula Laboratories, cat. # T-4111) in 50 mM sodium carbonate-bicarbonate buffer pH 9.4 was added to each well, sealed with aseptic sealing tape and incubated for 24 hours (±12 hours) at nominally 4° C. The microtiter plate was washed 5 times with […] wash buffer (10 mM Sodium Phosphate, 150 mM NaCl, 0.05% Tween 20, pH 7.5) using plate washer; 2) […] blocking buffer of SuperBlock in PBS (SuperBlock (Pierce, cat. #37515) in PBS, 5.0% Rabbit Plasma) was added to each well, sealed and incubated with constant shaking for approximately 1.5 hour (±30 minutes) at ambient room temperature and the microtiter plate washed; 3) 100 mL of either standards, quality controls (QCs) or samples were added per well, sealed, incubated and washed; 4) 100 mL of Detection Antibody solution of Biotin Labelled Rabbit polyclonal to Human Serum Albumin (NOVUS Biologicals, cat. # NB 100-1674) was added per well, sealed, incubated and washed; 5) 100 mL of Reporter Tag solution (Streptavidin-HRPO Conjugate, Caltag, cat. # SA1007) was added per well, sealed, incubated and washed; 6) 100 mL of Development Substrate Pico (SuperSignal ELISA, Pierce, cat. #37070) was added, incubated and the plate read using plate reader (Wallac 1420 Victor Multilabel Counter, Perkin Elmer Life Sciences, Boston, Mass.). Sample concentrations were determined by interpolation from the standard curve, which was fitted using a weighted (1/x), 4-parameter logistic equation. The validated range of this assay (based on 10 μL of human plasma) is 50 ng/mL to 1,500 ng/mL.
During the single dose study and 3 of the phase 3 trials (Harmony 2, 4 and 5), the assay process was modified from manual pipetting of samples to robotic pipetting.
Pharmacokinetic calculations were based on actual sampling collection times. All statistical analyses of pharmacokinetic parameters were performed using SAS Version 9.1 or later (SAS Institute, Inc., Cary, N.C.). […]

[2] = test system: patients with type 2 diabetes; conditions: head-to-head trial; cited from earlier work

In the case of “Albiglutide: recombinant fusion protein of 2 copies of modified human GLP-1 (fragment 7-36(A8G)) genetically fused in series to recombinant human serum albumin”, the Any event ([1]; Hemodialysis (n = 10)) is reported as 8 (80) n (%), the Dizziness ([1]; Hemodialysis (n = 10)) is reported as 2 (20) n (%) and the Fatigue ([1]; Hemodialysis (n = 10)) is reported as 2 (20) n (%). The Headache ([1]; Hemodialysis (n = 10)) was 3 (30) n (%), the “Hypoglycemia, Documented Symptomatic” value ([1]; Hemodialysis (n = 10)) was 1 (10) n (%) and the Nausea ([1]; Hemodialysis (n = 10)) was 5 (50) n (%). The “Total no. of events” value ([1]; Hemodialysis (n = 10)) was 38 n, the Vomiting ([1]; Hemodialysis (n = 10)) was 5 (50) n (%) and the “AUC Ratio” value ([1]; Hemodialysis:Normal) was 0.99. For the same substance, the “Cmax Ratio” value ([1]; Hemodialysis:Normal) was 1.11, the “AUC Ratio” value ([1]; Hemodialysis:Normal, listed as albiglutide) was 0.99 (0.63, 1.57) and the Any event ([1]; Moderate (n = 11)) was 3 (27.3) n (%). The Dizziness ([1]; Moderate (n = 11)) was 0 n (%), the Fatigue ([1]; Moderate (n = 11)) was 0 n (%) and the Headache ([1]; Moderate (n = 11)) was 0 n (%). The “Hypoglycemia, Documented Symptomatic” value ([1]; Moderate (n = 11)) was 0 n (%), the Nausea ([1]; Moderate (n = 11)) was 0 n (%) and the “Total no. of events” value ([1]; Moderate (n = 11)) was 4 n. The Vomiting ([1]; Moderate (n = 11)) was 0 n (%), the “AUC Ratio” value ([1]; Moderate:Normal) was 1.32 and the “Cmax Ratio” value ([1]; Moderate:Normal) was 1.21. The “AUC Ratio” value ([1]; Moderate:Normal, listed as albiglutide) was 1.32 (0.96, 1.80), the Any event ([1]; Normal (n = 10)) was 8 (80) n (%) and the Dizziness ([1]; Normal (n = 10)) was 0 n (%). The Fatigue ([1]; Normal (n = 10)) was 0 n (%), the Headache ([1]; Normal (n = 10)) was 0 n (%) and the “Hypoglycemia, Documented Symptomatic” value ([1]; Normal (n = 10)) was 0 n (%). For the same substance, the Nausea ([1]; Normal (n = 10)) was 0 n (%), the “Total no. of events” value ([1]; Normal (n = 10)) was 8 n and the Vomiting ([1]; Normal (n = 10)) was 0 n (%). The Any event ([1]; Severe (n = 10)) was 4 (40) n (%), the Dizziness ([1]; Severe (n = 10)) was 0 n (%) and the Fatigue ([1]; Severe (n = 10)) was 0 n (%). The Headache ([1]; Severe (n = 10)) was 1 (10) n (%), the “Hypoglycemia, Documented Symptomatic” value ([1]; Severe (n = 10)) was 2 (20) n (%) and the Nausea ([1]; Severe (n = 10)) was 0 n (%). For the same substance, the “Total no. of events” value ([1]; Severe (n = 10)) was 8 n, the Vomiting ([1]; Severe (n = 10)) was 0 n (%) and the “AUC Ratio” value ([1]; Severe:Normal) was 1.39. The “Cmax Ratio” value ([1]; Severe:Normal) was 1.23, the “AUC Ratio” value ([1]; Severe:Normal, listed as albiglutide) was 1.39 (1.03, 1.89) and the “subjects with a hypoglycemic SAE” value ([1]; hemodialysis group, insulin-treated subject) was “One”. For the same substance, the “half-life, geometric mean” value ([1]; participants with impaired renal function) was 141 to 145 h, the “half-life, geometric mean” value ([1]; participants with normal renal function) was 122 h and the “observed increase in AUC” value ([1]; patients with severe renal impairment) was 30 to 40%. The “median time of peak concentrations (Tmax)” value ([1]; regardless of the level of renal impairment) was 88 to 96 h, the nausea, percentage [2] was 10% and the vomiting, percentage [2] was 5%.
